{"source": "patent US20120251444A1", "biological_target": "LRP1 on wild-type CHO-K1 cells", "assay": "cell-based or functional assay", "data": [{"substance": "mini-RAPc (Hep1) combined with equimolar streptavidin-saporin conjugate (ZAP) (from UniProt P22629 37-163)", "values": [{"measurement": "reduction of viable cell number (MTT assay, 100 nM, 48 hours)", "result": 40, "unit": "%"}]}]}
